Experimental findings from paper PMC9234707 (2022) are described below.

To fix the notation:
B1: GDF11 (protein)
chain 1: GLDCDEHSSESRCCRYPLTVDFEAFGWDWIIAPKRYKANYCSGQCEYMFMQKYPHTHLVQQANPRGSAGPCCTPTKMSPINMLYFNDKQQIIYGKIPGMVVDRCGCS
chain 2: GLDCDEHSSESRCCRYPLTVDFEAFGWDWIIAPKRYKANYCSGQCEYMFMQKYPHTHLVQQANPRGSAGPCCTPTKMSPINMLYFNDKQQIIYGKIPGMVVDRCGCS
B2: BMP15 (protein)
chain 1: PENNQCSLHPFQISFRQLGWDHWIIAPPFYTPNYCKGTCLRVLRDGLNSPNHAIIQNLINQLVDQSVPRPSCVPYKYVPISVLMIEANGSILYKEYEGMIAESCTCR
chain 2: PENNQCSLHPFQISFRQLGWDHWIIAPPFYTPNYCKGTCLRVLRDGLNSPNHAIIQNLINQLVDQSVPRPSCVPYKYVPISVLMIEANGSILYKEYEGMIAESCTCR
B3: BMP10 (protein)
chain 1: AKGNYCKRTPLYIDFKEIGWDSWIIAPPGYEAYECRGVCNYPLAEHLTPTKHAIIQALVHLKNSQKASKACCVPTKLEPISILYLDKGVVTYKFKYEGMAVSECGCR
chain 2: AKGNYCKRTPLYIDFKEIGWDSWIIAPPGYEAYECRGVCNYPLAEHLTPTKHAIIQALVHLKNSQKASKACCVPTKLEPISILYLDKGVVTYKFKYEGMAVSECGCR
B4: Nodal (protein)
chain 1: DRSQLCRKVKFQVDFNLIGWGSWIIYPKQYNAYRCEGECPNPVGEEFHPTNHAYIQSLLKRYQPHRVPSTCCAPVKTKPLSMLYVDNGRVLLDHHKDMIVEECGCL
chain 2: DRSQLCRKVKFQVDFNLIGWGSWIIYPKQYNAYRCEGECPNPVGEEFHPTNHAYIQSLLKRYQPHRVPSTCCAPVKTKPLSMLYVDNGRVLLDHHKDMIVEECGCL
B5: ActivinB (protein)
chain 1: GLECDGRTNLCCRQQFFIDFRLIGWNDWIIAPTGYYGNYCEGSCPAYLAGVPGSASSFHTAVVNQYRMRGLNPGTVNSCCIPTKLSTMSMLYFDDEYNIVKRDVPNMIVEECGCA
chain 2: GLECDGRTNLCCRQQFFIDFRLIGWNDWIIAPTGYYGNYCEGSCPAYLAGVPGSASSFHTAVVNQYRMRGLNPGTVNSCCIPTKLSTMSMLYFDDEYNIVKRDVPNMIVEECGCA

The target in this experiment is ACVR2A (Homo sapiens (Human), UniProt P27037). Put plainly: SPR, receptor-Fc dimer captured (avidity), single 80 nM injections.
Sequence of ACVR2A (P27037 26-118): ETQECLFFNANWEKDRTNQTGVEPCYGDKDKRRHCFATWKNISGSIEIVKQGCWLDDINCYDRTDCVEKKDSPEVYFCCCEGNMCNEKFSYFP
B1 had a Kd of 0.052 nM.
With B2 the figure was over 80 nM.
On to B3, for which the Kd was found to be 1 nM.
With B4 the figure was over 80 nM.
With B5 the figure was 0.053 nM.
